Experimental data from patent US12281162 (LANOVA MEDICINES DEVELOPMENT, dated 2025).
Values belong to the binder of their own block, whether it stands above or below them.

How the values were obtained:
[1] = target: T1, human G-protein-coupled receptor family C group 5 member D (GPRC5D) (human, UniProt Q9NZD1 1-345); experiment: FACS, CHO-K1/human GPRC5D, chimeric antibody
T1 construct: whole, on cells; also called human GPRC5D protein
Experimental: CHO—K1 cells stably expressed human GPRC5D, were harvested from flasks. 100 µl of 1×10⁶ cells/ml of cells were incubated with primary chimeric antibodies in 3-fold serial dilutions starting from 300 nM to 0.001 nM for 30 minutes on ice. After being washed with 200 µl of FACS buffer twice, cells were incubated with secondary antibody for 30 minutes on ice. Cells were washed with 200 µl of FACS buffer twice and transferred to BD Falcon 5 ml tube and analyzed by FACS.

[2] = target: T1, human G-protein-coupled receptor family …; experiment: FACS, CHO-K1/human GPRC5D
[3] = target: T1, human G-protein-coupled receptor family …; experiment: FACS, CHO-K1/GPRC5D
[4] = target: T1, human G-protein-coupled receptor family …; experiment: FACS, NCI-H929 cells
[5] = target: T1, human G-protein-coupled receptor family …; experiment: FACS, CHO-K1/GPRC5D; remark: listed apart in the source
[6] = target: T1, human G-protein-coupled receptor family …; experiment: FACS, CHO-K1/GPRC5D; remark: listed apart in the source

T1 sequence (Q9NZD1 whole entry): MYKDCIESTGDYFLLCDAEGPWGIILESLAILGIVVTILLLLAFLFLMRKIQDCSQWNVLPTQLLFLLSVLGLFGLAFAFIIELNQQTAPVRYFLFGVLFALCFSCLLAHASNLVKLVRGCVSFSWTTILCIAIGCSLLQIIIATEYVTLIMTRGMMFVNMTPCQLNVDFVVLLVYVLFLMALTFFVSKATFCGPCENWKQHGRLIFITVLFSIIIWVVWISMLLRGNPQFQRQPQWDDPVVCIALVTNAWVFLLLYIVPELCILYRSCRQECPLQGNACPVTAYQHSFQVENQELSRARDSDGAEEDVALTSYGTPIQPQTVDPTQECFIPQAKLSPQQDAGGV

Bottom [1]: 5770 | LogEC50 [1]: 0.229 | Span [1]: 398000 | Top [1]: 404000
B1: 21C3C11B3 (chimeric) (antibody, V domains shown)
VH: QVQLQQSGAELVRPGTSVKVSCKASGYAFINYLIEWIKQRPGQGLEWIGMINPGSGGTNYNEKFKDKATLTADKSSSTAYMQLSSLTSDDSAVYFCARNWDVWGQGTTLTVSS
VL: DVVMTQSPLSLPVSLGDQASVSCRSSQSLVHSTGNTYLHWYLQKPGQSPKLLIYKVSNRFSGVPDRFSGSGSGTDFTLKISRVEAEDLGVYFCSQSTHVPWTFGGGTKLEIK

Bottom [2]: 52.2 | LogEC50 [2]: 0.556 | Span [2]: 107000 | Top [2]: 107000 | Bottom [1]: -522 | LogEC50 [1]: 0.36 | Span [1]: 415000 | Top [1]: 415000 | Bottom [3]: 6700 | LogEC50 [3]: 0.292 | Span [3]: 121000 | Top [3]: 127000 | Bottom [4]: 261 | LogEC50 [4]: 0.16 | Span [4]: 14500 | Top [4]: 14700
B3: 58F9G10-XI (antibody, V domains shown)
VH: EVQLQQSGPELVKTGASVKISCKASGYSFTGYYIHWVKQSHGKSLEWIGYISCYNGATSFNQKFKGKATFTVDTSSSTAYMQFNSLTSEDSAVYYCARTELRGPWFAYWGQGTLVTVSA
VL: QTVLTQSPAIMSASPGEKVTMTCSASSSVSYMNWYQQKSGTSPKRWIYDTSKLASGVPARFSGSGSGTSYSLTISSMEAEDAATYYCQQWSNNPLTFGAGTKLELK
notes: also called 58F9G10 (chimeric); 58-XI

Bottom [2]: 523 | LogEC50 [2]: 0.511 | Span [2]: 102000 | Top [2]: 102000 | Bottom [5]: 9600 | LogEC50 [5]: 0.357 | Span [5]: 169000 | Top [5]: 178000 | Bottom [4]: 342 | LogEC50 [4]: -0.199 | Span [4]: 13200 | Top [4]: 13500
B5: 37-H1L1 (antibody, V domains shown)
VH: EVQLVESGGGLVQPGGSLRLSCAASGFTFSDYWMNWVRQAPGKGLEWVAEIRLKSNNYATHYAESVKGRFTISRDNAKNSLYLQMNSLRAEDTAVYYCARPLLWFRRYYAMDYWGQGTLVTVSS
VL: DIQMTQSPSSLSASVGDRVTITCSASQGISNYLNWYQQKPGKAPKLLIYYTSSLHSGVPSRFSGSGSGTDFTLTISSLQPEDFATYYCQQYSKLPFTFGQGTKLEIK
notes: humanized 37B9C4, VH v1 x VL v1; also called 37B9C4 (H1L1)

Bottom [5]: 8050 | LogEC50 [5]: 0.333 | Span [5]: 160000 | Top [5]: 168000
B8: 37-H2L3 (antibody, V domains shown)
VH: EVQLVESGGGLVQPGGSLRLSCAASGFTFSDYWMNWVRQSPGKGLEWVAEIRLKSNNYATHYAESVKGRFTISRDNAKSSLYLQMNSLRAEDTAVYYCTRPLLWFRRYYAMDYWGQGTLVTVSS
VL: DIQMTQSPSSLSASVGDRITITCSASQGISNYLNWYQQKPGKTVKLLIYYTSSLHSGVPSRFSGSGSGTDYTLTISSLQPEDFATYYCQQYSKLPFTFGSGTKLEIK
notes: humanized 37B9C4, VH v2 x VL v3

Bottom [5]: 6370 | LogEC50 [5]: 0.292 | Span [5]: 173000 | Top [5]: 179000
B10: 37-H3L1 (antibody, V domains shown)
VH: EVQLVESGGGLVQPGGSLRLSCAASGFTFSDYWMNWVRQSPGKGLEWVAEIRLKSNNYATHYAESVKGRFTISRDDSKSSVYLQMNSLRAEDTAVYYCTRPLLWFRRYYAMDYWGQGTLVTVSS
VL: DIQMTQSPSSLSASVGDRVTITCSASQGISNYLNWYQQKPGKAPKLLIYYTSSLHSGVPSRFSGSGSGTDFTLTISSLQPEDFATYYCQQYSKLPFTFGQGTKLEIK
notes: humanized 37B9C4, VH v3 x VL v1

Bottom [2]: 75.4 | LogEC50 [2]: 0.612 | Span [2]: 104000 | Top [2]: 104000 | Bottom [3]: 9890 | LogEC50 [3]: -0.192 | Span [3]: 93800 | Top [3]: 104000 | Bottom [4]: 276 | LogEC50 [4]: 0.3 | Span [4]: 13700 | Top [4]: 13900
B12: 58-H3L1 (antibody, V domains shown)
VH: QVQLVQSGAEVKKPGASVKVSCKASGYSFTGYYIHWVKQAPGQGLEWIGYISSYNAATSFNQKFKGRVTFTVDTSTSTVYMEFSSLRSEDTAVYYCARTELRGPWFAYWGQGTLVTVSS
VL: DIQMTQSPSSLSASVGDRVTITCSASSSVSYMNWYQQKPGKAPKLLIYDTSKLASGVPSRFSGSGSGTDFTLTISSLQPEDFATYYCQQWSNNPLTFGQGTKLEIK
notes: humanized 58F9G10, VH v3 x VL v1

The remaining lines, values behind:

B2: 29B2C10 (chimeric) (antibody, V domains shown)
VH: EVQLQQSGPELVKPGASMKLSCKASGYSFTGYTMHWVKQSHGENLEWIGLINPYNGGTNYNQKFKGKATLTVDKSSSTAYMELLSLTSEDSAVYYCSRWGLRRAMDYWGQGTSVTVSS
VL: DIVMTQSQKFMSTSVGDRVSVTCKASQNVGSNVAWYQQKPGQSPKALIYSASYRYSGVPDRFTGNGSGTDFTLTISNVQSEDLAEYFCQQYYNSPWTFGGGTKLEIK
Bottom [1]: 4330 | LogEC50 [1]: 0.342 | Span [1]: 426000 | Top [1]: 430000

B4: 38A10E9A11 (chimeric) (antibody, V domains shown)
VH: QVQLQQSGAELARPGASVKMSCKASGYTFTTYTMHWVKQRPGQGLEWIGYINPSSGYTNYNQKFKDKATLTAGKSSSTAYMQLSSLTSEDSAVYYCASLRSRGYFDYWGRGTTLTVSS
VL: DIVMTQSQKFLSTSVGDRVSITCKASQNVGTAVAWYQQKPGQSPKLLIYSASNRYTGVPDRFTGSGSGTDFTLTISNMQSEDLAGYFCQQYSSYPYTFGGGTKLEIK
notes: also called 38A9E10A11
Bottom [1]: 3020 | LogEC50 [1]: 0.245 | Span [1]: 384000 | Top [1]: 387000

B6: 37-H3L3 (antibody, V domains shown)
VH: EVQLVESGGGLVQPGGSLRLSCAASGFTFSDYWMNWVRQSPGKGLEWVAEIRLKSNNYATHYAESVKGRFTISRDDSKSSVYLQMNSLRAEDTAVYYCTRPLLWFRRYYAMDYWGQGTLVTVSS
VL: DIQMTQSPSSLSASVGDRITITCSASQGISNYLNWYQQKPGKTVKLLIYYTSSLHSGVPSRFSGSGSGTDYTLTISSLQPEDFATYYCQQYSKLPFTFGSGTKLEIK
notes: humanized 37B9C4, VH v3 x VL v3
Bottom [5]: 7780 | LogEC50 [5]: 0.285 | Span [5]: 173000 | Top [5]: 181000

B7: 37-H2L1 (antibody, V domains shown)
VH: EVQLVESGGGLVQPGGSLRLSCAASGFTFSDYWMNWVRQSPGKGLEWVAEIRLKSNNYATHYAESVKGRFTISRDNAKSSLYLQMNSLRAEDTAVYYCTRPLLWFRRYYAMDYWGQGTLVTVSS
VL: DIQMTQSPSSLSASVGDRVTITCSASQGISNYLNWYQQKPGKAPKLLIYYTSSLHSGVPSRFSGSGSGTDFTLTISSLQPEDFATYYCQQYSKLPFTFGQGTKLEIK
notes: humanized 37B9C4, VH v2 x VL v1
Bottom [5]: 9180 | LogEC50 [5]: 0.351 | Span [5]: 166000 | Top [5]: 175000

B9: 37-H3L2 (antibody, V domains shown)
VH: EVQLVESGGGLVQPGGSLRLSCAASGFTFSDYWMNWVRQSPGKGLEWVAEIRLKSNNYATHYAESVKGRFTISRDDSKSSVYLQMNSLRAEDTAVYYCTRPLLWFRRYYAMDYWGQGTLVTVSS
VL: DIQMTQSPSSLSASVGDRVTITCSASQGISNYLNWYQQKPGKTVKLLIYYTSSLHSGVPSRFSGSGSGTDYTLTISSLQPEDFATYYCQQYSKLPFTFGQGTKLEIK
notes: humanized 37B9C4, VH v3 x VL v2
Bottom [5]: 9190 | LogEC50 [5]: 0.315 | Span [5]: 170000 | Top [5]: 179000

B11: 58-H1L1 (antibody, V domains shown)
VH: QVQLVQSGAEVKKPGASVKVSCKASGYSFTGYYIHWVRQAPGQGLEWMGYISSYNAATSFNQKFKGRVTMTRDTSTSTVYMELSSLRSEDTAVYYCARTELRGPWFAYWGQGTLVTVSS
VL: DIQMTQSPSSLSASVGDRVTITCSASSSVSYMNWYQQKPGKAPKLLIYDTSKLASGVPSRFSGSGSGTDFTLTISSLQPEDFATYYCQQWSNNPLTFGQGTKLEIK
notes: humanized 58F9G10, VH v1 x VL v1
Bottom [2]: 275 | LogEC50 [2]: 0.579 | Span [2]: 99200 | Top [2]: 99500 | Bottom [3]: 15000 | LogEC50 [3]: 0.252 | Span [3]: 92800 | Top [3]: 108000 | Bottom [4]: 281 | LogEC50 [4]: 0.165 | Span [4]: 13200 | Top [4]: 13500

B13: 40A5B2 (chimeric) (antibody, V domains shown)
VH: EVQLQQSGPELVKPGASVKMSCKASGYTFTRNIMHWVKQKPGQGLEWIGYINPYNAGSKYNEKFKGKATLTSDISSSTAYMELSSLTSEDSAVYYCAREEVYYRYGAWFAYWGHGTLVTVSA
VL: DIVLTQSPASLAVSLGQRATISCRASQSVSTSSYSYMHWYQQKPGQPPKLLIKYASNLESGVPARFSGSGSGTDFTLNIHPVEEEDTATYYCQHSWEIPRTFGGGTKLEIK
Bottom [1]: 1490 | LogEC50 [1]: 0.344 | Span [1]: 439000 | Top [1]: 440000

B14: 34-H1L1 (antibody, V domains shown)
VH: EVQLVESGGGLVKPGGSLRLSCAASGFTFSSYGMSWVRQAPGKGLEWVSTISSGGSYTYYPDSVKGRFTISRDNAKNSLYLQMNSLRAEDTAVYYCARQGGDAMDYWGQGTLVTVSS
VL: DIQMTQSPSSLSASVGDRVTITCRASQSINNNLHWYQQKPGKAPKLLIYYASQSISGVPSRFSGSGSGTDFTLTISSLQPEDFATYYCQQSNSRLTFGGGTKVEIK
notes: humanized 34D3H1, VH v1 x VL v1
Bottom [2]: 171 | LogEC50 [2]: 0.781 | Span [2]: 119000 | Top [2]: 119000 | Bottom [6]: 10900 | LogEC50 [6]: 0.591 | Span [6]: 186000 | Top [6]: 197000 | Bottom [4]: 199 | LogEC50 [4]: 0.805 | Span [4]: 17700 | Top [4]: 17900
